Residue numbers refer to the chain shown, from its start.
B1: Clone 118 (designed binder)
chain: MIPGGLSEAKPATPEIQEIVDKVKPQLEEKTGETYGKLEAVQYKTQVDVISIPLVWNGTNYYIKVRAGDNKYMHLKVFKSLIFQEYYPHREDLVLTGYQVDKNKDDELTGF
notes: His-tagged
B2: Clone 122 (designed binder)
chain: B1 chain with S51H, L54H, V55Q, N57H, Q84H, Y86P, Y87K, H89P
notes: His-tagged
B3: Clone 109 (designed binder)
chain: MIPGGLSEAKPATPEIQEIVDKVKPQLEEKTGETYGKLEAVQYKTQVDISGVGLVPNGTNYYIKVRAGDNKYMHLKVFKSLNWNYPQQPFEDLVLTGYQVDKNKDDELTGF
notes: His-tagged
B4: Clone 105 (designed binder)
chain: MIPGGLSEAKPATPEIQEIVDKVKPQLEEKTGETYGKLEAVQYKTQVDETSENVIQWGTNYYIKVRAGDNKYMHLKVFKSLWPADILTQHEDLVLTGYQVDKNKDDELTGF
notes: His-tagged
B5: Clone 103 (designed binder)
chain: MIPGGLSEAKPATPEIQEIVDKVKPQLEEKTGETYGKLEAVQYKTQVDFSFPLVHWYGTNYYIKVRAGDNKYMHLKVFKSLRFRDGGHHVEDLVLTGYQVDKNKDDELTGF
notes: His-tagged
B6: Clone 56 (designed binder)
chain: MIPGGLSEAKPATPEIQEIVDKVKPQLEEKTGETYGKLEAVQYKTQVVGGRHRWNWSGTNYYIKVRAGDNKYMHLKVFKSLFEPSGLAAEEDLVLTGYQVDKNKDDELTGF
notes: His-tagged
B7: Clone 84 (designed binder)
chain: MIPGGLSEAKPATPEIQEIVDKVKPQLEEKTGETYGKLEAVQYKTQVVLIRHLWSWSGTNYYIKVRAGDNKYMHLKVFKSLFEGENHQIDEDLVLTGYQVDKNKDDELTGF
notes: His-tagged
B8: Clone 86 (designed binder)
chain: MIPGGLSEAKPATPEIQEIVDKVKPQLEEKTGETYGKLEAVQYKTQVVDVRGQWAWTGTNYYIKVRAGDNKYMHLKVFKSLFQPRTKATEEDLVLTGYQVDKNKDDELTGF
notes: His-tagged
B9: Clone 194 (designed binder)
chain: MIPGGLSEAKPATPEIQEIVDKVKPQLEEKTGETYGKLEAVQYKTQVVEERRIWNWTGTNYYIKVRAGDNKYMHLKVFKSLFTASDTHPAEDLVLTGYQVDKNKDDELTGF
notes: His-tagged
B10: Clone 149 (designed binder)
chain: MIPGGLSEAKPATPEIQEIVDKVKPQLEEKTGETYGKLEAVQYKTQVVKTLGVWHWSGTNYYIKVRAGDNKYMHLKVFKSLFEQHAENIEEDLVLTGYQVDKNKDDELTGF
notes: His-tagged
B11: Clone 77 (designed binder)
chain: MIPGGLSEAKPATPEIQEIVDKVKPQLEEKTGETYGKLEAVQYKTQVVWDRPRWGWTGTNYYIKVRAGDNKYMHLKVFKSLFKESSRNDEEDLVLTGYQVDKNKDDELTGF
notes: His-tagged
B12: Clone 95 (designed binder)
chain: MIPGGLSEAKPATPEIQEIVDKVKPQLEEKTGETYGKLEAVQYKTQVDTIHPQAKYWGTNYYIKVRAGDNKYMHLKVFKSLWKNLLKPIHEDLVLTGYQVDKNKDDELTGF
notes: His-tagged
B13: Clone 104 (designed binder)
chain: MIPGGLSEAKPATPEIQEIVDKVKPQLEEKTGETYGKLEAVQYKTQVDNAHPLVKNWGTNYYIKVRAGDNKYMHLKVFKSLWRNDTSSIYEDLVLTGYQVDKNKDDELTGF
notes: His-tagged
B14: Clone 10 (designed binder)
chain: MIPGGLSEAKPATPEIQEIVDKVKPQLEEKTGETYGKLEAVQYKTQVVDDVKNGFVQGTNYYIKVRAGDNKYMHLKVFKSLIDRHVYWLEEDLVLTGYQVDKNKDDELTGF
notes: His-tagged
B15: Clone 113 (designed binder)
chain: MIPGGLSEAKPATPEIQEIVDKVKPQLEEKTGETYGKLEAVQYKTQVDWVTRHHTLVGTNYYIKVRAGDNKYMHLKVFKSLPPFKHWHLEDLVLTGYQVDKNKDDELTGF
notes: His-tagged
B16: Clone 116 (designed binder)
chain: B15 chain
notes: His-tagged
B17: Clone 119 (designed binder)
chain: MIPGGLSEAKPATPEIQEIVDKVKPQLEEKTGETYGKLEAVQYKTQVDSWVFKPFYHGTNYYIKVRAGDNKYMHLKVFKSLSGPEFFSRHEDLVLTGYQVDKNKDDELTGF
notes: His-tagged
B18: Clone 114 (designed binder)
chain: MIPGGLSEAKPATPEIQEIVDKVKPQLEEKTGETYGKLEAVQYKTQVDQSSDLAKLWGTNYYIKVRAGDNKYMHLKVFKSLWNLNSDKSSEDLVLTGYQVDKNKDDELTGF
notes: His-tagged
B19: Clone 117 (designed binder)
chain: MIPGGLSEAKPATPEIQEIVDKVKPQLEEKTGETYGKLEAVQYKTQVDHEVRKTYEFGTNYYIKVRAGDNKYMHLKVFKSLWFGGWPLAQEDLVLTGYQVDKNKDDELTGF
notes: His-tagged
B20: Clone 112 (designed binder)
chain: MIPGGLSEAKPATPEIQEIVDKVKPQLEEKTGETYGKLEAVQYKTQVDRFYHQWHFLGTNYYIKVRAGDNKYMHLKVFKSLDLRAPRNDNEDLVLTGYQVDKNKDDELTGF
notes: His-tagged
B21: Clone 115 (designed binder)
chain: B20 chain
notes: His-tagged
B22: Clone 108 (designed binder)
chain: MIPGGLSEAKPATPEIQEIVDKVKPQLEEKTGETYGKLEAVQYKTQVDREHASVKFWGTNYYIKVRAGDNKYMHLKVFKSLWLEATPHTQEDLVLTGYQVDKNKDDELTGF
notes: His-tagged
B23: Clone 1 (designed binder)
chain: MIPGGLSEAKPATPEIQEIVDKVKPQLEEKTGETYGKLEAVQYKTQVVVYHVRWNYLGTNYYIKVRAGDNKYMHLKVFKSLSLEEPPVETEDLVLTGYQVDKNKDDELTGF
notes: His-tagged
B24: Clone 11 (designed binder)
chain: MIPGGLSEAKPATPEIQEIVDKVKPQLEEKTGETYGKLEAVQYKTQVVEVQQQENFQGTNYYIKVRAGDNKYMHLKVFKSLHIYEHIVYREDLVLTGYQVDKNKDDELTGF
notes: His-tagged
B25: Clone 40 (designed binder)
chain: MIPGGLSEAKPATPEIQEIVDKVKPQLEEKTGETYGKLEAVQYKTQVVKRRHFPQWQGTNYYIKVRAGDNKYMHLKVFKSLGDHLNQYPNEDLVLTGYQVDKNKDDELTGF
notes: His-tagged
B26: Clone 175 (designed binder)
chain: MIPGGLSEAKPATPEIQEIVDKVKPQLEEKTGETYGKLEAVQYKTQVVWRRWFPQWPGTNYYIKVRAGDNKYMHLKVFKSLPEADADDPKEDLVLTGYQVDKNKDDELTGF
notes: His-tagged
B27: Clone 48 (designed binder)
chain: MIPGGLSEAKPATPEIQEIVDKVKPQLEEKTGETYGKLEAVQYKTQVVTRKHFPQYWGTNYYIKVRAGDNKYMHLKVFKSLNEPLPVTNIEDLVLTGYQVDKNKDDELTGF
notes: His-tagged
B28: Clone 246 (designed binder)
chain: MIPGGLSEAKPATPEIQEIVDKVKPQLEEKTGETYGKLEAVQYKTQVVERFHFPQFPGTNYYIKVRAGDNKYMHLKVFKSLPHLDYIWNWEDLVLTGYQVDKNKDDELTGF
notes: His-tagged
B29: Clone 247 (designed binder)
chain: MIPGGLSEAKPATPEIQEIVDKVKPQLEEKTGETYGKLEAVQYKTQVVRREHFPRWPGTNYYIKVRAGDNKYMHLKVFKSLDLLLRKEEVEDLVLTGYQVDKNKDDELTGF
notes: His-tagged
B30: Clone 184 (designed binder)
chain: MIPGGLSEAKPATPEIQEIVDKVKPQLEEKTGETYGKLEAVQYKTQVVHRKHFHQFTGTNYYIKVRAGDNKYMHLKVFKSLSNDYYETYLEDLVLTGYQVDKNKDDELTGF
notes: His-tagged
B31: Clone 101 (designed binder)
chain: MIPGGLSEAKPATPEIQEIVDKVKPQLEEKTGETYGKLEAVQYKTQVDHHHRFAKWWGTNYYIKVRAGDNKYMHLKVFKSLWFNENREDTEDLVLTGYQVDKNKDDELTGF
notes: His-tagged
B32: Clone 102 (designed binder)
chain: MIPGGLSEAKPATPEIQEIVDKVKPQLEEKTGETYGKLEAVQYKTQVDRKAAVVARHGTNYYIKVRAGDNKYMHLKVFKSLWPFLVIEKYEDLVLTGYQVDKNKDDELTGF
notes: His-tagged
B33: Clone 107 (designed binder)
chain: MIPGGLSEAKPATPEIQEIVDKVKPQLEEKTGETYGKLEAVQYKTQVDFTDIHWSTWGTNYYIKVRAGDNKYMHLKVFKSLIPAWQQIHVEDLVLTGYQVDKNKDDELTGF
notes: His-tagged
B34: Clone 196 (designed binder)
chain: MIPGGLSEAKPATPEIQEIVDKVKPQLEEKTGETYGKLEAVQYKTQVVLLWTPPYVDGTNYYIKVRAGDNKYMHLKVFKSLGWNDDHSVGEDLVLTGYQVDKNKDDELTGF
notes: His-tagged
B35: Clone 12 (designed binder)
chain: B34 chain with L49Q, W51K, T52F, D57S, N84D, D86K, H87P, S88E, V89W, G90D
notes: His-tagged
B36: Clone 110 (designed binder)
chain: MIPGGLSEAKPATPEIQEIVDKVKPQLEEKTGETYGKLEAVQYKTQVDHTQPKALDWGTNYYIKVRAGDNKYMHLKVFKSLWGSILTDGPEDLVLTGYQVDKNKDDELTGF
notes: His-tagged

Target: T1, human PD-L1-Fc (R&D Systems) (human, UniProt Q9NZQ7 19-239)
T1 construct: Bought from R&D Systems; Biotinylated in-house for the phage selection; also called huPD-L1-Fc; human PD-L1-Fc antigen; not shown: Fc part of the bought fusion
Assay: soluble Affimer ELISA

T1 sequence (Q9NZQ7 19-239 limits assumed): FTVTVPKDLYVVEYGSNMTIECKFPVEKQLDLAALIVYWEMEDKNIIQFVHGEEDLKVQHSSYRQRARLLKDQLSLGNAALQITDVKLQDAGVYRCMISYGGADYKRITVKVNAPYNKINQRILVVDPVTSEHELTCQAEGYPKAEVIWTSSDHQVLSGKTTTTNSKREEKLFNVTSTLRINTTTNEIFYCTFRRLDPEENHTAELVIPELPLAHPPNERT

Binding result, binds:
B1
B2
B3
B4
B5
B6
B7
B8
B9
B10
B11
B12
B13
B14
B15
B16
B17
B18
B19
B20
B21
B22
B23
B24
B25
B26
B27
B28
B29
B30
B31
B32
B33
B34
B35
B36
